In a protein production outcome set (Wang et al. 2014) one finds protein production data, which are given here for 14 sequences.

The nature of this series: label from the status in PepcDB records.
Turning to “MSLEAIHRSTRIEFSKSSLAYNVQYTKQVSGAKTLWLAVKSNAYGHGLLQVSKIARECGVDGLAVSVLDEGIAIRQAGIDDFILILGPIDVKYAPIASKYHFLTTVSSLDWLKSADKILGKEKLSVNLAVDTGMNRIGVRSKKDLKDEIEFLQEHSDHFSYDGIFTHFASSDNPDDHYFQRQKNRWYELIDGLIMPRYVHVMNSGAAMYHSKELPGCNSIARVGTVVYGVEPSEGVLGPIDKLKPVFELKSALTFVKKIPAGEGISYGSKFVTSRDTWIGTLPIGYGDGWLAEYQDFQLLIDGQKCRQVGQIAMDQMMVALPHEYPIGTEVTLIGKSGKYENTLYDLHKHSGVPPWKITVAFSDRLKRMVVDEGHHHHHH”, the protein production entry was “not failed”. Regarding “MSLEILTAGPMLTVQDAGRFGLRHMGVSPAGPIDRAAMALANALVGNDPGAAALEFAGPAGRFRCDRPVRFAVAGADCPLRIDARTVSPGESHRLNPGETLTVGVPEGAVWAYLAFSGAIASPEVLGSRATHLRSGVGGRALGAGDRLPLGEDDPEAPCLRPGLRLEAAAPFRETGPIRLILGPQDDHFAPEVIARLTGCDFTVTPQRDRMAMVLGGVELPAERGHDIVSDGTVPGSVQVPGSGTPLVLLAESQTTGGYPKIGTVASVDLARLAQMPVGARFRFALISAREGEDLWIARQAR”, the protein production result is “failed”. With “MSLEPSQIMPLSVLIAEDNDICRLVAAKALEKCTNDITVVTNGLQALQAYQNRQFDVIIMDIQMPVMDGLEAVSEIRNYERTHNTKRASIIAITADTIDDDRPGAELDEYVSKPLNPNQLRDVVLTCHSEGAEGHHHHHH” the entry was “not failed”; with “MSLERNYEESALFEHQFWLKVLTDHAQFLLDALAPKEKEDIKKATYFVETFTNLLNKVRNVNLMAFSKEAEQAAKEIRAFKLNIIQKQLEGKITIHFTPTFINHMVNEVEEYIAVLEFLKKGEVPPVFHELHYHLVWLTDAAGHAGSISGGLDLVEKRLKEKSEEFTKHFEQFYLKAVEMTGYLRTELHHFPALKKFTKDVSLELKLFSHFLHEVEELELSNEVLSVLSARMADHMAREECYYLLKLAQSSGLEMPKCNPLEGHHHHHH”, “not failed”; with “MSLFTCEDPAVWKAVHNKYWTVVEAKSAGKRKTSGKLLQLDKWFQEDLPAAITARPERFLTHAELVKIMEWKLTKGKFRPRLQQLIGSNNEEAVQSSSSKAFSLLPDVQAAIKELCKLKGVGSATASAVLVAGAPDKVAFMADEAVESIAELRPVEYTDKHYALYLQKMLWKTSELNKVDAQQDWTPHRVEQCLWTWTVANQIQPSLLQGVSLKDATNQKPEKRKTADEKPSKRKKTE”, “failed”. With “MSLGHIIVTGAGSGLGRALTIGLVERGHQVSMMGRRYQRLQQQELLLGNAVIGIVADLAHHEDVDVAFAAAVEWGGLPELVLHCAGTGEFGPVGVYTAEQIRRVMESNLVSTILVAQQTVRLIGERGGVLANVLSSAAQVGKANESLYCASKWGMRGFLESLRAELKDSPLRLVNLYPSGIRSEFWDNTDHVDPSGFMTPEDAAAYMLDALEARSSCHVTDLFIGRNEGHHHHHH” the entry was “not failed”; with “MSLGIIRSILDTDLYKFTTGYAYAKLFPRAYGEFRFIDRNRQGFTEEFAELVRGEIRAMAALSLTRDEKEFLQRELPYLPPIYIDFLDGFRFDPEEVTVSIDAQGHLDIRAQGLLYRVTLWETPILAVISELYYRFIGAKPDWKQVEEVTRSKGELMREHRTTFSIFGMRRRFSLEVEDRVTDILKQYAGESLFGTSNVHLAHKHGLRVSGTHPHEWIQFHGAIYGYKMANYVAMEDWINVYDGDLGTVLTDTYTTDVFMRNFSKKHAMLFTSLRHDSGDPEIFIEKAVRRYEELRVDPKIKYIIFSDSLTPQRAIEIQKLCAGRIKASFGIGTNLTNDVGGGVEPLNIVMKLWKCKMTAKDDWHYCVKLSDVDGKHTGEPEEILLAMNTLGIKPKEGHHHHHH”, “not failed”. As for “MSLGKRIFVFDTTLRDGEQVPGCQLNTEEKIIVAKALDELGVDVIEAGFPVSSPGDFNSVVEITKAVTRPTICALTRAKEADINIAGEALRFAKRSRIHTGIGSSDIHIEHKLRSTRENILEMAVAAVKQAKKVVHEVEFFCEDAGRADQAFLARMVEAVIEAGADVVNIPDTTGYMLPWQYGERIKYLMDNVSNIDKAILSAHCHNDLGLATANSLAALQNGARQVECTINGIGERAGNTALEEVVMAMECHKETLGLETGINHKKLVPISHLVSTLMRMQVQSNKAIVGRNAFAHSSGIHQDGFLKHRETYEIIDEGHHHHHH”, the protein production result is “not failed”. As to “MSLGQTTLACSFRSLTNPYYTAFNKGAQSFAKSVGLPYVPLTTEGSSEKGIADIRALLQKTGGNLVLNVDPNDSADARVIVEACSKAGAYVTTIWNKPKDLHPWDYNPNYVAHLSYDGVAYGEETATQLFKSMGGKGGVVALGGIFSNVPAIERKAGLDAALKKFPGIQLLDFQVADWNSQKAFPIMQAWMTRFNSKIKGVWAANDDMALGAIEALRAEGLAGQIPVTGMDGTQPGLVAIKSGELVASVDWDPFWLGGIGLSMGLQAKEKKIDLATLPKDRRESFCTATFVTKTNVQDVIARAASPKAEWNNLYARVAGPVVYREGHHHHHH”, the protein production result is “not failed”. With “MSLGRKQQYGTLASIAAKLGISRTTVSNAYNRPEQLSAELRQRILDTAEDMGYLGPDPVARSLRTRRAGAIGVLLTEDLTYAFEDMASVDFLAGVAQAAGDTQLTLIPASPASSVDHVSAQQLVNNAAVDGVVIYSVAKGDPHIDAIRARGLPAVIADQPAREEGMPFIAPNNRKAIAPAAQALIDAGHRKIGILSIRLDRANNDGEVTRERLENAQYQVQRDRVRGAMEVFIEAGIDPGTVPIMECWINNRQHNFEVAKELLETHPDLTAVLCTVDALAFGVLEYLKSVGKSAPADLSLTGFDGTHMALARDLTTVIQPNKLKGFKAGETLLKMIDKEYVEPEVELETSFHPGSTVAEGHHHHHH” the entry was “not failed”; with “MSLHPHAMPDMGPDMNKVPWMGDEQIAMLVYPGMTVMDLVGPHCMFGSLMGAKIYIVAKSLDPVTSDAGLAIVPTATFGTCPRDLTVLFAPGGTDGTLAAASDAETLAFMADRGARAKYITSVCSGSLILGAAGLLKGYKATSHWSCRDALAGFGAIPTEARVVRDRNRITGAGVTAGLDFGLSMVAELRDQTYAECAQLMSEYDPDPPFNAGSMKTAPAHVRTAMIELVAEFTKKADALAGFPKEGHHHHHH”, “not failed”. With “MSLHPNIQAVTDRIRKRSAPSRAAYLAGLDAALREGPFRSRLSCGNLAHGFAASEPGDKSRLRGAATPNLGIITAYNDMLSAHQPFEHYPQLIRETARTLGATAQVAGGVPAMCDGVTQGRAGMELSLFSRDNIAQATAIGLSHDMFDSVVYLGVCDKIVPGLLIGALAFGHLPAIFMPAGPMTPGIPNKQKAEVRERYAAGEATRAELLEAEASSYHSPGTCTFYGTANSNQVLLEAMGVQLPGASFVNPELPLRDALTREGTARALAISALGEDFRPFGRLIDERAIVNAVVALMATGGSTNHTIHWIAVARAAGIVLTWDDMDLISQTVPLLTRIYPNGEADVNRFQAAGGTAFVFRELMDAGYMHDDLPTVVEGGMRAYINEPRLQDGKVTYVPGTATTADDSVARPVGDAFESQGGLRLLRGNLGRSLIKLSAVKPQHRSIQAPAVVIDTPQVLNKLHAAGVLPHDFVVVLRYQGPRANGMPELHSMAPLLGLLQNQGRRVALVTDGRLSGASGKFPAAIHLTPEAARGGPIGRVREGDIVRLDGEAGTLEVLVSAEEWASREVAPNTSVAGNDLGRNLFAINRQVVGPADQGAISISCGPTHPDGALWSYDAEYELGADAAAAAAPHESKDA” the entry was “failed”; with “MSLIEIRKRTLIVETTYHENGPAPAQPLKLAASCAVIRNPYAGRYEPDLMPFMAELRSLGTLLATELVDTLGKDNIEVYSKAAIVGVDGEMEHGAVWHEAGGWAMRSVLGEPKAMVPAVKAVATAGYRMMVPVHYIHASYVRSHFNSIEIGIQDAPRPREILFALVMGTGARVHARLGGLTKEAVSVHDGQR”, “not failed”. As for “MSLIERVRTDLYRIPLPTRLTDSTHGAMMDFELITVRIEDSDGATGLGYTYTVNHGGAAVATMVDKDLRGCLLGADAEQIEKIWQSMWWRLHYAGRGGHATSAISAVDIALWDLKGIRARTPLWKLFGGYDPVVPVYAGGIDLELPVADLKTQADRFLAGGFRAIKMKVGRPDLKEDVDRVSALREHLGDSFPLMVDANMKWTVDGAIRAARALAPFDLHWIEEPTIPDDLVGNARIVRESGHTIAGGENLHTLYDFHNAVRAGSLTLPEPDVSNIGGYTTFRKVAALAEANNMLLTSHGVHDLTVHALASVPHRTYMEAHGFGLHAYMAEPMAVTDGCVSAPDRPGHGVVLDFERLGRLAVGEGHHHHHH”, the protein production result is given as “not failed”.
